In paper PMC2994906 (PLoS ONE, 2010):
No end group written: not given here.

T1: human RARα LBD (residues 153-421) (human, UniProt P10276 153-421)
T1 construct: Cloned in pET15b; The purification of RARα alone is not described; also called hRARα LBD; RARα monomer; source: E. coli BL21 (DE3), purified
T1 sequence (looked up): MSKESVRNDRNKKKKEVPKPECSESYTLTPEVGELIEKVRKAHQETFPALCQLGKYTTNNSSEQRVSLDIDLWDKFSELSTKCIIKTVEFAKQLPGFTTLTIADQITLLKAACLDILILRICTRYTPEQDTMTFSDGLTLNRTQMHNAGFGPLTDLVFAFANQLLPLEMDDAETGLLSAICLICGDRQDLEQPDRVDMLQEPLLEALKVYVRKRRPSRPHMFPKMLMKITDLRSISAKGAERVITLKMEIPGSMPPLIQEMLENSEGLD

T2: hRARα/mRXRα LBD heterodimer (human | mouse, UniProt P10276 153-421; P28700 228-467)
T2 construct: RARα in pET15b (His-tagged), RXRα in pET3a (no tag named); The heterodimer was formed beforehand by copurification; also called RAR/RXR; RARα/RXRα LBD; copies: 1 + 1
T2 sequence (looked up) 1: T1 sequence (looked up)
T2 sequence (looked up) 2: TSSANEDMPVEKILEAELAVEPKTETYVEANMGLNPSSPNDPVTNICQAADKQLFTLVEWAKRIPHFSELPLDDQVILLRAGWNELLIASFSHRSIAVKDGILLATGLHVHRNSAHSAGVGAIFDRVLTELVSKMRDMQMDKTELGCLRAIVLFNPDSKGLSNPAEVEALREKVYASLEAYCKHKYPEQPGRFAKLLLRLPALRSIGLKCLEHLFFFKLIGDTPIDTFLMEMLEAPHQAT

B1: TAMRA-labeled SRC-1 NR2 peptide (686-RHKILHRLLQEGS-698) (peptide)
peptide: RHKILHRLLQEGS
modifications: also: TAMRA label, position not given here
notes: also called (TAMRA) – SRC-1 NR2 peptide; source: bought: Neosystem (Strasbourg, France)
B2: hRARα/mRXRα LBD heterodimer (complex, human | mouse)
chain 1: T1 sequence (looked up)
chain 2: T2 sequence (looked up) 2
notes: Heterodimer formed beforehand; small-molecule ligands (atRA, LG100754, AM580, BMS614, BMS649, 9-cisRA, HX531) differ between experiments and are named in the assays; also called RARα/RXRα LBD; RAR/RXR; not shown: His6, N-terminal, kept; copies: 1 + 1
B3: SRC-1 NR2 peptide (676-[residues removed]-700) (peptide)
peptide: CPSSHSSLTERHKILHRLLQEGSPS
notes: The unlabelled 25-residue peptide used in ITC and ESI-MS; It is not the 13-residue TAMRA-labelled peptide of the anisotropy titrations

Assays:
Details in all cases: both partners purified
[1] = target: B2; experiment: fluorescence polarisation; fluorescence anisotropy; hRARα/mRXRα LBDs added to a fixed concentration of TAMRA-SRC-1 NR2 peptide; 20°C; 10 mM TRIS-HCl pH 7.5, 150 mM NaCl, 10 mM DTT; apparent; RAR apo, RXR apo
[2] = target: B2; experiment: fluorescence polarisation; fluorescence anisotropy; hRARα/mRXRα LBDs added to a fixed concentration of TAMRA-SRC-1 NR2 peptide; 20°C; 10 mM TRIS-HCl pH 7.5, 150 mM NaCl, 10 mM DTT; apparent; RAR apo, RXR ligand LG100754
[3] = target: B2; experiment: fluorescence polarisation; fluorescence anisotropy; hRARα/mRXRα LBDs added to a fixed concentration of TAMRA-SRC-1 NR2 peptide; 20°C; 10 mM TRIS-HCl pH 7.5, 150 mM NaCl, 10 mM DTT; apparent; RAR ligand BMS614, RXR ligand LG100754
[4] = target: B2; experiment: fluorescence polarisation; fluorescence anisotropy; hRARα/mRXRα LBDs added to 1 µM TAMRA-SRC-1 NR2 peptide; 20°C; 10 mM TRIS-HCl pH 7.5, 150 mM NaCl, 10 mM DTT; apparent; RAR ligand BMS614, RXR ligand BMS649
[5] = target: B2; experiment: fluorescence polarisation; fluorescence anisotropy; hRARα/mRXRα LBDs added to 1 µM TAMRA-SRC-1 NR2 peptide; 20°C; 10 mM TRIS-HCl pH 7.5, 150 mM NaCl, 10 mM DTT; apparent; RAR ligand AM580, RXR ligand LG100754
[6] = target: B2; experiment: fluorescence polarisation; fluorescence anisotropy; hRARα/mRXRα LBDs added to 1 µM TAMRA-SRC-1 NR2 peptide; 20°C; 10 mM TRIS-HCl pH 7.5, 150 mM NaCl, 10 mM DTT; apparent; RAR ligand AM580, RXR apo
[7] = target: B2; experiment: fluorescence polarisation; fluorescence anisotropy; hRARα/mRXRα LBDs added to 1 µM TAMRA-SRC-1 NR2 peptide; 20°C; 10 mM TRIS-HCl pH 7.5, 150 mM NaCl, 10 mM DTT; apparent; RAR apo, RXR ligand BMS649
[8] = target: B2; experiment: fluorescence polarisation; fluorescence anisotropy; hRARα/mRXRα LBDs added to 1 µM TAMRA-SRC-1 NR2 peptide; 20°C; 10 mM TRIS-HCl pH 7.5, 150 mM NaCl, 10 mM DTT; apparent; 9-cisRA on RAR and RXR; two sites, fit gave k2 identical to k1
[9] = target: B2; experiment: fluorescence polarisation; fluorescence anisotropy; hRARα/mRXRα LBDs added to 1 µM TAMRA-SRC-1 NR2 peptide; 20°C; 10 mM TRIS-HCl pH 7.5, 150 mM NaCl, 10 mM DTT; apparent; RAR ligand AM580, RXR ligand BMS649; two sites, fit gave k2 identical to k1
[10] = target: B1; experiment: fluorescence polarisation; fluorescence anisotropy; hRARα/mRXRα LBDs added to a fixed concentration of TAMRA-SRC-1 NR2 peptide; 20°C; 10 mM TRIS-HCl pH 7.5, 150 mM NaCl, 10 mM DTT; apparent; RAR apo, RXR apo
[11] = target: B1; experiment: fluorescence polarisation; fluorescence anisotropy; hRARα/mRXRα LBDs added to a fixed concentration of TAMRA-SRC-1 NR2 peptide; 20°C; 10 mM TRIS-HCl pH 7.5, 150 mM NaCl, 10 mM DTT; apparent; RAR apo, RXR ligand LG100754
[12] = target: B1; experiment: fluorescence polarisation; fluorescence anisotropy; hRARα/mRXRα LBDs added to 1 µM TAMRA-SRC-1 NR2 peptide; 20°C; 10 mM TRIS-HCl pH 7.5, 150 mM NaCl, 10 mM DTT; apparent; RAR ligand BMS614, RXR ligand BMS649
[13] = target: B1; experiment: fluorescence polarisation; fluorescence anisotropy; hRARα/mRXRα LBDs added to 1 µM TAMRA-SRC-1 NR2 peptide; 20°C; 10 mM TRIS-HCl pH 7.5, 150 mM NaCl, 10 mM DTT; apparent; RAR ligand AM580, RXR ligand LG100754
[14] = target: B1; experiment: fluorescence polarisation; fluorescence anisotropy; hRARα/mRXRα LBDs added to 1 µM TAMRA-SRC-1 NR2 peptide; 20°C; 10 mM TRIS-HCl pH 7.5, 150 mM NaCl, 10 mM DTT; apparent; RAR ligand AM580, RXR apo
[15] = target: B1; experiment: fluorescence polarisation; fluorescence anisotropy; hRARα/mRXRα LBDs added to 1 µM TAMRA-SRC-1 NR2 peptide; 20°C; 10 mM TRIS-HCl pH 7.5, 150 mM NaCl, 10 mM DTT; apparent; RAR apo, RXR ligand BMS649
[16] = target: B1; experiment: fluorescence polarisation; fluorescence anisotropy; hRARα/mRXRα LBDs added to 1 µM TAMRA-SRC-1 NR2 peptide; 20°C; 10 mM TRIS-HCl pH 7.5, 150 mM NaCl, 10 mM DTT; apparent; 9-cisRA on RAR and RXR; two sites, fit gave k2 identical to k1
[17] = target: B1; experiment: fluorescence polarisation; fluorescence anisotropy; hRARα/mRXRα LBDs added to 1 µM TAMRA-SRC-1 NR2 peptide; 20°C; 10 mM TRIS-HCl pH 7.5, 150 mM NaCl, 10 mM DTT; apparent; RAR ligand AM580, RXR ligand BMS649; two sites, fit gave k2 identical to k1
[18] = target: T1, human RARα LBD (residues 153-421); experiment: ITC; SRC-1 NR2 peptide (1.3 mM) injected into 20-50 µM RAR or RAR/RXR with LG100754 in fivefold molar excess; 30°C; 20 mM Tris pH 8.0, 200 mM NaCl, 2% ethanol
[19] = target: T2, hRARα/mRXRα LBD heterodimer; experiment: as above
[20] = target: T1, human RARα LBD (residues 153-421); experiment: ITC; SRC-1 NR2 peptide (1.3 mM) injected into 20-50 µM RAR without ligand (apo); 30°C; 20 mM Tris pH 8.0, 200 mM NaCl, 2% ethanol
[21] = target: T1, human RARα LBD (residues 153-421); experiment: ITC; SRC-1 NR2 peptide (1.3 mM) injected into 20-50 µM RAR with an RAR agonist in fivefold molar excess (agonist not named); 30°C; 20 mM Tris pH 8.0, 200 mM NaCl, 2% ethanol

Binder: B1
- Kd [1]: 2000 ± 100 nM
- Kd [2]: 2500 ± 100 nM
- Kd [3]: > 10000 nM
- Kd [4]: 450 ± 40 nM
- Kd [5]: 170 ± 10 nM
- Kd [6]: 190 ± 20 nM
- Kd [7]: 420 ± 30 nM
- Kd [8]: 610 ± 20 nM
- Kd [9]: 290 ± 20 nM

Binder: B2
- stoichiometry N [10]: 1
- stoichiometry N [11]: 1
- stoichiometry N [12]: 1
- stoichiometry N [13]: 1
- stoichiometry N [14]: 1
- stoichiometry N [15]: 1
- stoichiometry N [16]: 2
- stoichiometry N [17]: 2

Binder: B3
- Kd [18]: 1600 ± 200 nM
- Kd [19]: 4500 ± 600 nM
- Kd [20]: 9000 ± 400 nM
- Kd [21]: 1400 ± 100 nM
